In the supplement of paper PMC7125110:
± gives the standard error. For some of these results: Variants at the floor of the assay were thinned out.

B1: glmS ribozyme (parent)
chain: AUAAAAGCGCCAGAACUACAGAAAUGUAGUUGACGAGGAGGAGGUUUAUCGAAUUUUCGGCGGAUGCCUCCAAA

Legend:
Conditions in all cases: with glucosamine-6-phosphate
glucosamine-6-phosphate [1] = variants of: B1; experiment: kcat; higher = faster cleavage; RNA array
Outline: (§1)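 kcat and KM were obtained from weighted Michaelis–Menten fits across concentrations of kobs values. Those came from one- or two-exponential decay fits to per-tile medians normalised to baseline and to non-cleaving reference variants. The variants were barcoded ribozymes transcribed in situ by E. coli RNA polymerase on sequenced MiSeq chips and tracked through a hybridised Cy3 probe at 37 °C, with 40 μM to 10 mM glucosamine-6-phosphate in HEPES/KCl/Mg(OAc)2 buffer flowed in.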

glucosamine-6-phosphate [2] = variants of: B1; experiment: self-cleavage kobs at 640 uM GlcN6P; higher = faster cleavage; RNA array
Outline: as §1

glucosamine-6-phosphate [3] = variants of: B1; experiment: self-cleavage kobs at 2500 uM GlcN6P; higher = faster cleavage; RNA array
Outline: as §1

glucosamine-6-phosphate [4] = variants of: B1; experiment: self-cleavage kobs at 10000 uM GlcN6P; higher = faster cleavage; RNA array
Outline: as §1

glucosamine-6-phosphate [5] = variants of: B1; experiment: self-cleavage kobs at 40 uM GlcN6P; higher = faster cleavage; RNA array
Outline: as §1

glucosamine-6-phosphate [6] = variants of: B1; experiment: self-cleavage kobs at 160 uM GlcN6P; higher = faster cleavage; RNA array
Outline: as §1

glucosamine-6-phosphate [7] = variants of: B1; experiment: KM; higher = weaker cofactor use; RNA array
Outline: as §1

Variant | kcat (glucosamine-6-phosphate [1]) [s⁻¹] | self-cleavage kobs at 640 uM GlcN6P (glucosamine-6-phosphate [2]) [s⁻¹] | self-cleavage kobs at 2500 uM GlcN6P (glucosamine-6-phosphate [3]) [s⁻¹] | self-cleavage kobs at 10000 uM GlcN6P (glucosamine-6-phosphate [4]) [s⁻¹] | self-cleavage kobs at 40 uM GlcN6P (glucosamine-6-phosphate [5]) [s⁻¹] | self-cleavage kobs at 160 uM GlcN6P (glucosamine-6-phosphate [6]) [s⁻¹] | KM (glucosamine-6-phosphate [7]) [µM]
AUAAAAGCGCCAGAACUACAGAAAUGUAGUUGACGAGGAGGAGGUUUAUCGAAUUUUCGGCCGAUGCCUGAAAA | 3.99e-05 ± 1.8e-05 | 6.26e-05 ± 2.7e-05 | 5.21e-05 ± 2.2e-05 |  |  |  | 
AUAAAAGCGCCAGAACUACAGAAAUGUAGUUGACGAGGAGGAGGUUUAUCGAAUUUUCGGAGGAUGCAUCCAAA | 1.17e-05 ± 1.8e-06 |  |  |  |  |  | 
AUAAAAGCGCCAGAACUACAGAAAUGUAGUUGACGAGGAGGAGGUUUAUCGAAUUUUCGGCCGAUGCGUCCAAA | 1.08e-05 ± 2.7e-06 |  |  | < 1e-05 |  |  | 
AUAAAAGCGCCAGAACUACAGAAAUGUAGUUGACGAGGAGGAGGUUUAUCGAAUUUUCGGUGGAUGCCUGCAAA | 1.1e-05 ± 2e-06 |  |  |  |  |  | 
AUAAAAGCGCCAGAACUACAGAAAUGUAGUUGACGAGGAGGAGGUUUAUCGAAUUUUCGGGGGAUGUCUCCAAA | 2.12e-05 ± 5.2e-06 |  |  |  |  |  | 
AUAAAAGCGCCAGAACUACAGAAAUGUAGUUGACGAGGAGGAGGUUUAUCGAAUUUUCGGGGGAUGACUCCAAA | 2.67e-05 ± 6.5e-06 | 3.33e-05 ± 1.4e-05 |  |  |  |  | 
AUAAAAGCGCCAGAACUACAGAAAUGUAGUUGACGAGGAGGAGGUUUAUCGAAUUUUCGGAGGAUUCCUCCAAA | < 1e-05 |  |  |  |  |  | 
AUAAAAGCGCCAGAACUACAGAAAUGUAGUUGACGAGGAGGAGGUUUAUCGAAUUUUCGGGGGAUGCCUCUAAA | < 1e-05 |  |  | < 1e-05 | < 1e-05 |  | 
AUAAAAGCGCCAGAACUACAGAAAUGUAGUUGACGAGGAGGAGGUUUAUCGAAUUUUCGGGGGAUGCCCCCAAA | 6.05e-05 ± 1.7e-05 | 5.44e-05 ± 1.3e-05 | 7.59e-05 ± 1.2e-05 |  |  | 6.31e-05 ± 1.1e-05 | 
AUAAAAGCGCCAGAACUACAGAAAUGUAGUUGACGAGGAGGAGGUUUAUCGAAUUUUCGGGGCAUGCCUCCAAA | < 1e-05 |  | < 1e-05 |  | < 1e-05 | < 1e-05 | 181 ± 67
AUAAAAGCGCCAGAACUACAGAAAUGUAGUUGACGAGGAGGAGGUUUAUCGAAUUUUCGGAGGAUGACUCCAAA | 6.65e-05 ± 1.4e-05 | 5.15e-05 ± 1.8e-05 | 7.72e-05 ± 1.8e-05 |  |  | 5.31e-05 ± 1.5e-05 | 
AUAAAAGCGCCAGAACUACAGAAAUGUAGUUGACGAGGAGGAGGUUUAUCGAAUUUUCGGAGGAUGGCUCCAAA | 2.3e-05 ± 5e-06 | 2.63e-05 ± 1.3e-05 |  |  |  |  | 
AUAAAAGCGCCAGAACUACAGAAAUGUAGUUGACGAGGAGGAGGUUUAUCGAAUUUUCGGAGGAUGCCUCUAAA | 1.05e-05 ± 3.5e-06 | < 1e-05 |  |  |  |  | 
AUAAAAGCGCCAGAACUACAGAAAUGUAGUUGACGAGGAGGAGGUUUAUCGAAUUUUCGGAGGAAGCCUCCAAA | < 1e-05 |  | < 1e-05 |  |  |  | 
AUAAAAGCGCCAGAACUACAGAAAUGUAGUUGACGAGGAGGAGGUUUAUCGAAUUUUCGGGGGAUGCCCGCAAA | 5.75e-05 ± 1.9e-05 | 6.36e-05 ± 2.5e-05 | 8.71e-05 ± 4.1e-05 |  |  | 5.95e-05 ± 2.1e-05 | 
